Measurements from the DeepSol protein solubility set.

Experiment: soluble on expression in E. coli; label from the status in PepcDB or PDB records

| Sequence | soluble on expression in E. coli |
| --- | --- |
| MDNYEKVRVVGRGAFGVCWLCRGKNDASHQKVIIKLINTHGMTEKEENSIQSEVNLLKKVQHPLIIGYIDSFIMDNQLGIVMQYAEGGTLERLINDQRAIKDSNMREYFPEKTVLDYFTQILIALNHMHQKNIVHRDLKPQNILMNRRKTVLKLSDFGISKELGTKSAASTVIGTPNYLSPEICESRPYNQKSDMWSLGCVLYELLQLERAFDGENLPAIVMKITRSKQNPLGDHVSNDVKMLVENLLKTHTDKRPDVSQLLSDPLVLPYLISIHCDLGRIEPPPTDKRKPSASLSSRLRTYPTQSTLRPYSLSSNAPTTHLTQLTPMPSHIDSGFFSSGRTSNQRTQSRSQVHSKY | soluble |
| KMNRKPTTKIISICLKKATGHVAEALGVEKATEVIVIERLRSLDNMPAIFEIDYFRKEDQFMLDLELTDTSLLDILRQYRGVIASYFDNIIEIALADEKLAEALAISEEEALVKINQTVVDNDNQILYFNEQYILSESYKVAIRSYNK | soluble |
| MHHHHHHAADPPPVHDTDGHELRADANYYVLSANRAHGGGLTMAPGHGRHCPLFVSQDPNGQHDGFPVRITPYGVAPSDKIIRLSTDVRISFRAYTTCLQSTEWHIDSELAAGRRHVITGPVKDPSPSGRENAFRIEKYSGAEVHEYKLMSSGDWCQDLGVFRDLKGGAWFLGATEPYHVVVFKKAPPA | soluble |
| MSLNRSSIAHFTASVFVLNESHDKILGIYHKIYQSWGWVGGHADGNADLLAVAVKEVQEETGLRSFKKLSEMPISIEALPVFGHHHRKYGYVSAHIHLNVTFLFEAKESDSLQKNTDETGGLAWIPLEKFSEKSSEKEMRVIYDKIITRIINKEGHHHHHH | not soluble |
| MLLELIPLLGIHFVLRTARAQSVTQPDIHITVSEGASLELRCNYSYGATPYLFWMERTVEEAFILLVCLKPWRVASSLEKKEKEDESFQLLLGSRYNVLEAHCLLPLIRWLTSGDSLLSAQPHCPQEL | not soluble |
| MGHHHHHHSHMANSAGSMANSAGSMKEGKHFVLVHGACHGGWSWYKLKPLLEAAGHKVTALDLAASGTDLRKIEELRTLYDYTLPLMELMESLSADEKVILVGHSLGGMNLGLAMEKYPQKIYAAVFLAAFMPDSVHNSSFVLEQYNERTPAENWLDTQFLPYGSPEEPLTSMFFGPKFLAHKLYQLCSPEDLALASSLVRPSSLFMEDLSKAKYFTDERFGSVKRVYIVCTEDKGIPEEFQRWQIDNIGVTEAIEIKGADHMAMLCEPQKLCASLLEIAHKYN | soluble |
| MSLGTFPAGVSADSVFVGLTIPLTGVFSGDGGDLKLGYELAIAQINAGSDIAQKWGLKGKGVLGRQIRHKVSDTEGKPNLDVQSATQFIQRDKAIMVSGSVSSSSAIALEELGSREKVLYMVGIAGSNDITGKNCQRYGFRSQQNAYMAAKGLAPVVAKALGKNIKMAFLVPDYTYGHSVYDSFSKFATEQGWKQVAKEVVPLGTTDYSSALLNIANSGADVFVNIAFGADSVASTKQAEQFGVLKRMKLVVPNLSSFQDKELGAELMQGVYGSCDFWFGLQDKFPLAKAFVDSFVAQNNYHPRWGAHIGYMQTYLWAMSVERANTFNPVDVIKVMENSKAQPYVTTIGNVYFRAEDHQMVRPIPILRGKKPSEMKHKEDFYDIIDLVDGEAVMNPPDLFGCKLGPYTEGHHHHHH | soluble |
| MATSRMVQARVPEEIQNVASQVIQASGLTVSDVVRVLMTRIAQDKAIPSVLFQPNAETIAAFAEVDEGNLKKFHSVDELFDDLYADD | not soluble |
| MGSDKIHHHHHHMKEKLRLYHTNDLHSHFENWPKIVDYIEQKRKEHQSDGEETLVFDIGDHLDRFQFVTEATFGKANVDLLNRLHIDGAAIGNNEGITLPHEELAALYDHAEFPVIVSNLFDKNGNRPSWAVPYHIKSLKNGMSIAFLGVTVPYYPVYDKLGWTVTDALESIKETILEVKGQADIIVLLSHLGILDDQAVAEAVPEIDVILESHTHHLLEDGQVVNGVLLASAEKYGHYVGCVEITVDSVQRSINSKTASVQNMAEWTGESAETKAFLNEKEREAEEKLSDAVAELAQDAEVKWFEESELPLLLAYALKEWCETDISMVNSGVILGPLKAGPVTKLDLHRICPHPINPVAVRLTGEELKETIVHAASEQMEQLRIKGLGFRGEVMGKMVYAGVEVETKRLDDGITHVTRITLNGEDIEKHKQYSVAVLDMFTLGKLFPLIRDAAEKEYFMPEFLRDLLAWKLAQ | not soluble |
| MAHHHHHHMTVVQEAIRVTSATPQPCGAADDVLAMKTLSPHDKVRRYMEEQECRHVPPTDATPEVASSEGGHDDALPGQHEDGDGEINHKIVPFTGEPGPDARERVPDRQKEKKKQKKQQAPRKRKHRSECAGREADDPLLLFRRSQKALRTEARHVNMKEVLSRSLSGVFDGLGEASNPFSPAAGSQSSSAWSPLVANSITSQFLSNVQQRKKQTFERLLQKEIANSQLSTSRLTPDDGEPDDRIPELVIGDETAVMEPPSMGHDALLMDAGTTSSQADTLLMGNTTSRGFVELDEEAEQAQSEALMRKHELWRLRQKHLRERLRAEESIPQLKRGDHQASLRGQPQTTVPMNFVTQSTSSLSTARGTTADVDGPTETLVLAHCSIIQQSQSLALGLSADHIEMIRRANNFDNTSSQRLVVFETKSRMKREGLAHLQQ | not soluble |
| MSLASAMASSALREATCTMTRLAADVAASVSSIFSCKDSAGPRPVVPATKTTSTPLDVMFFTWFAKSSGSSLPPLKVVMTGATISIDSTRGALKKLARKGIKGWLNQYMATIKEIEPIVLYEQETDARWASYSILVRVVTSDGRVSYGEAVPTLRILPVVSAVRQTARAFLGRDPHEISAAFYEWYRQDFFLSRSFESATALSAIDMALWDLKARELGAPLYELLGGKLRDRVKVYANGWYGGCRDPQCFAEKAKEVVARGYDALKFDPFGPSFNSITSEELRRAEEAVAAVRDAVGDDVDILIEHHGRFNANAAVEIAKRFEPYRPYFMEEPLHHEDIEGYRKYRSLTSARIAMGERLISAKEALQYLVEGLVDVIQPDACNIGGVTGSMKVAALAEAFSVEVSYHNAYGPVQFALEVQLSAVTPTLYRLESFYDYWPQWKRDLIGDPFRLSQSSVEVPRGPGIGVAVNERVLEKYRAEPSEIPVGEEPVWVVRGTWREGHHHHHH | not soluble |
| MHDTMHKIFGATPPIFSYTPILTMNLCIAKATPNVCHSTGNLCKAEMDNVTSWVYDKTQGLFITGE | not soluble |
| MTMNIAVVSGRIAPELTLPGLNFSRAYAPSTDFRSARLGLLTGQYPQRQPVTRFASLIGTVAEDFSPADVHIIERAEITPDLLDQAHDSGAATFFVGHPTIDDHRVRMSLLWPGVTDTNLPHDTIDGVVTCNELVSTLDIAPTLAAIAGYDVRPNAQLSFDGMNLTPVIRYGATGHGGLFFDDGTVITPTEVRRQANDPEWTMWHQFMNMGPLQ | not soluble |
| MQSDHKEKIAILVDVQNVYYTCREAYRSNFDYNQFWYVATQEKEVVSAKAYAIASNDPKQRQFHHILRGVGFEVMLKPYIQRRDGSAKGDWDVGITLDAIEIAPDVDRVILVSGDGDFSLLVERIQQRYNKKVTVYGVPRLTSQTLIDCADNFVAIDDDFLL | soluble |
| MVFYGQPVTDDSTIRLSGQGVNTAFSVNLQAINHDVQKIAFTATCDGNQTLSQLGNLSIQVELNGSVLMKGDVETQGRQEAALILGELYRRNTEWKFRFVAQGFNGGLKPLAEHFGVVVEDEPAAPTPVPTPVSTPAPTAPPVAKPINLSKVSLTKEKPVISLTKRDDFGEIRVNLNWHRGGGAPAKGFLQGIFNSNKGIDLDLGAFVALNDGSRGVIQALGNNFGSYHSEPYVQLQGDDRTGDVSDGEWMHINGREWKHVKEVLIFAFIYEGVPSWGSTDGIVTINVPGQAPIETQMNEGNDRKNMCAVARLVNESGNIKVERINRYFSGHKEMDEAFGWGFRWKAGSK | not soluble |
| MSESSHVGLWNRCLEIIRDNVPESTYKTWFVPIVPLKYEDKTLIVQVPSQFFYEFLEDKFVDLLRKTLYKVIGDGTKLMYNVLVDKSSGATVNQESTTRSTAIPQSGLPRVDERKAPGLLRAPAVQDLDPHLNPNYNFETFIEGYSNKLSRSVAEAVAENPAKTVFNPLFLHGASGVGKTHLANAIGTRIKELYPDKRVLYVSAHLFQVQYTDSVRNNTTNDFINFYQTIDVLIIDDIQEFAGVTKTQNTFFHIFNHLHQNGKQLILTSDRAPVLLQGMEERLLTRFKWGMVAELEKPTVELRKNILRNKIHRDGLQFPSEVIDYIAENVNESVRDLEGIVISIMAHSTIYNKEIDLDLAQRIVRKVVRCETKAVTIDDIINVVCKHFDLESSAIHTKSRKREVVQARQVAMYLAKTHTDFSTSKIGKFIGNKDHATVLHACKTVKGQCEVDKGFRSDLENIETLLKKRNVSNGERLEHHHHHH | soluble |
